These results are taken from FireProtDB (doi:10.1006/jmbi.2001.4728).

The labels stand for the following.
B1: Cytochrome c-551, P00099 (parent)
chain: MKPYALLSLLATGTLLAQGAWAEDPEVLFKNKGCVACHAIDTKMVGPAYKDVAAKFAGQAGAEAELAQRIKNGSQGVWGPIPMPPNAVSDDEAQTLAKWVLSQK

The variants in the series derive from B1. Conditions: Pseudomonas aeruginosa (strain ATCC 15692 / DSM 22644 / CIP 104116 / JCM 14847 / LMG 12228 / 1C / PRS 101 / PAO1); pH 7; 10 °C; Urea; Fluorescence; sodium phosphate 50 mM; reversible: yes; structure 451C; whole UniProt chain shown.

As to MKPYALLSLLATGTLLAQGAWAEDPEVLFKNKGCVACHAIDTKMVGPAYKDVAAKFAGQAGAEAELAQRIKNGSQGVWGPIPMPPNAVSDDQAQTLAKWVLSQK [E92Q], the “ddG of mutation (higher = less stable)” value was determined as 3.77 kJ/mol, the denaturant m value is 1.1 kcal/mol/M, the “denaturant midpoint (higher = more stable)” value (shortened to “denaturant midpoint”) was found to be 5.7 M and the unfolding free energy was 25.9 kJ/mol.

In the case of MKPYALLSLLATGTLLAQGAWAEDPEVLFKNKGCVACHAIDTKMVGPAYKDVAAKFAGQAGAEAELAQRIKNGSQGVWGPIPMPPNAVSDDVAQTLAKWVLSQK [E92V], the “ddG of mutation (higher = less stable)” value was determined as 8.37 kJ/mol, the denaturant m value stood at 1.2 kcal/mol/M, the “denaturant midpoint” value is 4.3 M and the unfolding free energy amounted to 21.3 kJ/mol.

For the variant MKPYALLSLLATGTLLAQGAWAEDPEVLFKNKGCVACHAIDTKMVGPAYKDVAAKFAGQAGAEAELAQRIKNGSQGVFGPIPMPPNAVSDDEAQTLAKWVLSQK [W78F], the “ddG of mutation (higher = less stable)” value was 7.95 kJ/mol, the denaturant m value was 1.1 kcal/mol/M, the “denaturant midpoint” value came to 4.6 M and the unfolding free energy came to 21.8 kJ/mol.

Regarding MKPYALLSLLATGTLLAQGAWAEDPEVLFKNKGCVACHAIDTKMVGPAYKDVAAKFAGQAGAEAELAQRIKNGSQGVWGPIPMPPNAVSDDEAQTLAKFVLSQK [W99F], the “ddG of mutation (higher = less stable)” value amounted to 5.02 kJ/mol, the denaturant m value was 1 kcal/mol/M, the “denaturant midpoint” value is 5.6 M and the unfolding free energy is 24.7 kJ/mol.
